Values joined by “and” are separate entries in the source; they are usually repeats but may differ in a detail not shown here. Equal values may be shown once.
B1: human stefin B P74S (natural protein, UniProt P04080 1-98, looked up)
chain: MMSGAPSATQPATAETQHIADQVRSQLEEKENKKFPVFKAVSFKSQVVAGTNYFIKVHVGDEDFVHLRVFQSLSHENKPLTLSNYQTNKAKHDELTYF
B2: recombinant human stefin B wild-type (C3S) (natural protein, UniProt P04080 1-98, looked up)
chain: MMSGAPSATQPATAETQHIADQVRSQLEEKENKKFPVFKAVSFKSQVVAGTNYFIKVHVGDEDFVHLRVFQSLPHENKPLTLSNYQTNKAKHDELTYF
B3: human stefin B P11S (natural protein, UniProt P04080 1-98, looked up)
chain: MMSGAPSATQSATAETQHIADQVRSQLEEKENKKFPVFKAVSFKSQVVAGTNYFIKVHVGDEDFVHLRVFQSLPHENKPLTLSNYQTNKAKHDELTYF
B4: human stefin B P36D (natural protein, UniProt P04080 1-98, looked up)
chain: MMSGAPSATQPATAETQHIADQVRSQLEEKENKKFDVFKAVSFKSQVVAGTNYFIKVHVGDEDFVHLRVFQSLPHENKPLTLSNYQTNKAKHDELTYF
B5: human stefin B P6L (natural protein, UniProt P04080 1-98, looked up)
chain: MMSGALSATQPATAETQHIADQVRSQLEEKENKKFPVFKAVSFKSQVVAGTNYFIKVHVGDEDFVHLRVFQSLPHENKPLTLSNYQTNKAKHDELTYF
B6: human stefin B P11S P74S (natural protein, UniProt P04080 1-98, looked up)
chain: MMSGAPSATQSATAETQHIADQVRSQLEEKENKKFPVFKAVSFKSQVVAGTNYFIKVHVGDEDFVHLRVFQSLSHENKPLTLSNYQTNKAKHDELTYF
B7: human stefin B P6L P74S (natural protein, UniProt P04080 1-98, looked up)
chain: MMSGALSATQPATAETQHIADQVRSQLEEKENKKFPVFKAVSFKSQVVAGTNYFIKVHVGDEDFVHLRVFQSLSHENKPLTLSNYQTNKAKHDELTYF
B8: human stefin B P79S (natural protein, UniProt P04080 1-98, looked up)
chain: MMSGAPSATQPATAETQHIADQVRSQLEEKENKKFPVFKAVSFKSQVVAGTNYFIKVHVGDEDFVHLRVFQSLPHENKSLTLSNYQTNKAKHDELTYF
B9: human stefin B P74S P79S (natural protein, UniProt P04080 1-98, looked up)
chain: MMSGAPSATQPATAETQHIADQVRSQLEEKENKKFPVFKAVSFKSQVVAGTNYFIKVHVGDEDFVHLRVFQSLSHENKSLTLSNYQTNKAKHDELTYF

Biological target: the molecule itself
Assay: SEC; Superdex 75 (10 x 300 mm) on FPLC, room temperature, 0.5 mL/min, 500 uL of about 1 mg/mL protein; 10 mM phosphate, 0.15 M NaCl, pH 7.5 (legend and results; the methods say pH 7.0); equilibrium oligomeric state, stB wt as standard

Row | Protein | binding result
1 | B1 | binds

Biological target: the molecule itself
Assay: as above
Remark: another data set of the same source

Row | Protein | stoichiometry N | binding result
2 | B2 | 2 | –
3 | B3 | – | binds
4 | B4 | – | binds
5 | B5 | – | binds
6 | B6 | 2 | –
7 | B7 | 2 | –
8 | B8 | 2 and 4 | –
9 | B9 | 2 | –
